Substitutions are numbered along the chain they refer to.
Assays:
NRF1 DD-DBD [1] = target: T1, NRF1 DD-DBD (human, UniProt Q16656 54-284); assay: ITC; ITC: 20 mM Hepes pH 7.0, 150 mM NaCl, 25 C; protein 20-30 uM, dsDNA 500-600 uM; settings: protein: recombinant, tags: N-terminal His6 removed by TEV (pET28-MHL), chain copies: 2, blunt
T1 sequence: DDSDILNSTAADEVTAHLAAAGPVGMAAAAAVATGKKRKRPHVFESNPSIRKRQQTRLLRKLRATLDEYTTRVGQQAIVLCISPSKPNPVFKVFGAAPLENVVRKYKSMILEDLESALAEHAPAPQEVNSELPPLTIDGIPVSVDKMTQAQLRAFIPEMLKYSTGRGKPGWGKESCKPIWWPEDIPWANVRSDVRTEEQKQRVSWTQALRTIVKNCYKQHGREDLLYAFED

NRF1 DD-DBD [2] = target: T1, NRF1 DD-DBD; assay: ITC; mean of listed repeats 0.34 and 0.25; ITC: 20 mM Hepes pH 7.0, 150 mM NaCl, 25 C; protein 20-30 uM, dsDNA 500-600 uM; settings: protein: recombinant; tags: N-terminal His6 removed by TEV (pET28-MHL); chain copies: 2; blunt; self-complementary
[3] = target: the molecule itself; assay: SEC-MALS; HPLC-MALS, WTC-015S5 column, 50 mM PBS and 150 mM NaCl, 0.5 mL/min; oligomeric state of NRF1 fragments without DNA
NRF1 DBD [4] = target: T2, NRF1 DBD (human, UniProt Q16656 177-284); assay: crystal structure; ITC: 20 mM Hepes pH 7.0, 150 mM NaCl, 25 C; protein 20-30 uM, dsDNA 500-600 uM; settings: protein: recombinant; tags: N-terminal His6 removed by TEV (pET28-MHL); chain copies: 2; blunt; self-complementary
T2 sequence: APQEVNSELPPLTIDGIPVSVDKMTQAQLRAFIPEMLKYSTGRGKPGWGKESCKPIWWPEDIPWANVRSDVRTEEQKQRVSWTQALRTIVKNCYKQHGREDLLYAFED

NRF1 R244A = target: T3, NRF1 R244A (human, UniProt Q16656 54-284, R244A); assay: ITC; mean of repeats 6.45, 8.62, 4.92; ITC: 20 mM Hepes pH 7.0, 150 mM NaCl, 25 C; protein 20-30 uM, dsDNA 500-600 uM; settings: protein: recombinant; tags: N-terminal His6 removed by TEV; chain copies: 2; blunt; self-complementary
T3 sequence: T1 sequence with R191A

NRF1 N242A = target: T4, NRF1 N242A (human, UniProt Q16656 54-284, N242A); assay: ITC; mean of repeats 1.40, 1.89, 1.89; ITC: 20 mM Hepes pH 7.0, 150 mM NaCl, 25 C; protein 20-30 uM, dsDNA 500-600 uM; settings: protein: recombinant; tags: N-terminal His6 removed by TEV; chain copies: 2; blunt; self-complementary
T4 sequence: T1 sequence with N189A

NRF1 T109A = target: T5, NRF1 T109A (human, UniProt Q16656 54-284, T109A); assay: ITC; mean of repeats 2.80, 2.36, 1.72; ITC: 20 mM Hepes pH 7.0, 150 mM NaCl, 25 C; protein 20-30 uM, dsDNA 500-600 uM; settings: protein: recombinant; tags: N-terminal His6 removed by TEV; chain copies: 2; blunt; self-complementary
T5 sequence: T1 sequence with T56A

NRF1 DD = target: T6, NRF1 DD (human, UniProt Q16656 54-177); assay: ITC; repeats 1.86, 1.78, 1.96; ITC: 20 mM Hepes pH 7.0, 150 mM NaCl, 25 C; protein 20-30 uM, dsDNA 500-600 uM; settings: protein: recombinant; tags: N-terminal His6 removed by TEV (pET28-MHL); chain copies: 2; blunt; self-complementary
T6 sequence: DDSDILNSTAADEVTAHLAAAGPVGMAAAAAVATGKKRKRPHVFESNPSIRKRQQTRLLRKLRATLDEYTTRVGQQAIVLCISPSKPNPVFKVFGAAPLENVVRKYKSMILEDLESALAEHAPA

NRF1 DBD [5] = target: T2, NRF1 DBD; assay: ITC; ITC: 20 mM Hepes pH 7.0, 150 mM NaCl, 25 C; protein 20-30 uM, dsDNA 500-600 uM; settings: protein: recombinant; tags: N-terminal His6 removed by TEV (pET28-MHL); chain copies: 2; blunt; self-complementary
NRF1 T109D = target: T7, NRF1 T109D (human, UniProt Q16656 54-284, T109D); assay: ITC; mean of repeats 1.62, 1.87, 1.30; ITC: 20 mM Hepes pH 7.0, 150 mM NaCl, 25 C; protein 20-30 uM, dsDNA 500-600 uM; settings: protein: recombinant; tags: N-terminal His6 removed by TEV; chain copies: 2; blunt; self-complementary
T7 sequence: T1 sequence with T56D

NRF1 R206A = target: T8, NRF1 R206A (human, UniProt Q16656 54-284, R206A); assay: ITC; mean of repeats 5.60, 5.60, 4.40; ITC: 20 mM Hepes pH 7.0, 150 mM NaCl, 25 C; protein 20-30 uM, dsDNA 500-600 uM; settings: protein: recombinant; tags: N-terminal His6 removed by TEV; chain copies: 2; blunt; self-complementary
T8 sequence: T1 sequence with R153A

B1: GCaC (dsDNA)
DNA 1: ATGCACATGCGCAT
DNA 2: ATGCGCATGTGCAT
Kd (NRF1 DD-DBD [1]): 660 ± 40 nM

B2: 20 bp DNA (dsDNA)
DNA 1: GCGATGCGCATGCGCATCGC
DNA 2: GCGATGCGCATGCGCATCGC
Kd (NRF1 DD-DBD [2]): ~300 nM

B3: A spacer (dsDNA)
DNA 1: ATGCGCAGCGCAT
DNA 2: ATGCGCTGCGCAT
Kd (NRF1 DD-DBD [1]): 1620 ± 110 nM

B4: GCtC (dsDNA)
DNA 1: ATGCTCATGCGCAT
DNA 2: ATGCGCATGAGCAT
Kd (NRF1 DD-DBD [1]): 2230 ± 170 nM

B5: NRF1 (aa 98–177) (domain or fragment, human, UniProt Q16656 98-177, looked up)
chain: ESNPSIRKRQQTRLLRKLRATLDEYTTRVGQQAIVLCISPSKPNPVFKVFGAAPLENVVRKYKSMILEDLESALAEHAPA
notes: pET28-MHL vector; His6 tag removed with TEV protease; source: E. coli BL21 (DE3), purified (Ni-NTA, anion exchange, gel filtration); not shown: His6, N-terminal, cleaved
stoichiometry N [3]: 2

B6: GCGt/aCGC (dsDNA)
DNA 1: ATGCGTATACGCAT
DNA 2: ATGCGTATACGCAT
Kd (NRF1 DD-DBD [1]; self-complementary): 1310 ± 180 nM

B7: no spacer (dsDNA)
DNA 1: ATGCGCGCGCAT
DNA 2: ATGCGCGCGCAT
Kd (NRF1 DD-DBD [1]; self-complementary): 570 ± 20 nM

B8: ACT spacer (dsDNA)
DNA 1: ATGCGCACTGCGCAT
DNA 2: ATGCGCAGTGCGCAT
Kd (NRF1 DD-DBD [1]): 1960 ± 270 nM

B9: atta/GCGC (dsDNA)
DNA 1: ATATTAATGCGCAT
DNA 2: ATGCGCATTAATAT
Kd (NRF1 DD-DBD [1]): 3760 ± 230 nM

B10: GaGC (dsDNA)
DNA 1: ATGAGCATGCGCAT
DNA 2: ATGCGCATGCTCAT
Kd (NRF1 DD-DBD [1]): 1380 ± 150 nM

B11: tCGC (dsDNA)
DNA 1: ATTCGCATGCGCAT
DNA 2: ATGCGCATGCGAAT
Kd (NRF1 DD-DBD [1]): 2110 ± 800 nM

B12: NRF1 (aa 54–177) (domain or fragment, human, UniProt Q16656 54-177, looked up)
chain: T6 sequence
notes: pET28-MHL vector; His6 tag removed with TEV protease; also called NRF1 DD; dimerization domain; source: E. coli BL21 (DE3), purified (Ni-NTA, anion exchange, gel filtration); not shown: His6, N-terminal, cleaved
stoichiometry N [3]: 2

B13: GtGC (dsDNA)
DNA 1: ATGTGCATGCGCAT
DNA 2: ATGCGCATGCACAT
Kd (NRF1 DD-DBD [1]): 1810 ± 250 nM

B14: GCGa (dsDNA)
DNA 1: ATGCGAATGCGCAT
DNA 2: ATGCGCATTCGCAT
Kd (NRF1 DD-DBD [1]): 3750 ± 690 nM

B15: ACACTT spacer (dsDNA)
DNA 1: ATGCGCACACTTGCGCAT
DNA 2: ATGCGCAAGTGTGCGCAT
Kd (NRF1 DD-DBD [1]): 4360 ± 290 nM

B16: NRF1 (aa 54–284) (domain or fragment, human, UniProt Q16656 54-284, looked up)
chain: T1 sequence
notes: pET28-MHL vector; His6 tag removed with TEV protease; also called Nuclear respiratory factor 1; NRF1 dimer; source: E. coli BL21 (DE3), purified (Ni-NTA, anion exchange, gel filtration); not shown: His6, N-terminal, cleaved
stoichiometry N [3]: 2

B17: CG central (dsDNA)
DNA 1: ATGCGCCGGCGCAT
DNA 2: ATGCGCCGGCGCAT
Kd (NRF1 DD-DBD [1]; self-complementary): 1090 ± 60 nM

B18: GCGt (dsDNA)
DNA 1: ATGCGTATGCGCAT
DNA 2: ATGCGCATACGCAT
Kd (NRF1 DD-DBD [1]): 1250 ± 110 nM

B19: aCGC (dsDNA)
DNA 1: ATACGCATGCGCAT
DNA 2: ATGCGCATGCGTAT
Kd (NRF1 DD-DBD [1]): 1270 ± 270 nM

B20: 16 bp DNA (dsDNA)
DNA 1: GGTGCGCATGCGCACC
DNA 2: GGTGCGCATGCGCACC
binding result (NRF1 DBD [4]): binds

B21: ACACT spacer (dsDNA)
DNA 1: ATGCGCACACTGCGCAT
DNA 2: ATGCGCAGTGTGCGCAT
Kd (NRF1 DD-DBD [1]): 2320 ± 480 nM

B22: GCaC/GtGC (dsDNA)
DNA 1: ATGCACATGTGCAT
DNA 2: ATGCACATGTGCAT
Kd (NRF1 DD-DBD [1]; self-complementary): 4430 ± 550 nM

B23: ACGT spacer (dsDNA)
DNA 1: ATGCGCACGTGCGCAT
DNA 2: ATGCGCACGTGCGCAT
Kd (NRF1 DD-DBD [1]; self-complementary): 910 ± 40 nM

B24: 14 bp AT central (WT) (dsDNA)
DNA 1: ATGCGCATGCGCAT
DNA 2: ATGCGCATGCGCAT
Kd (NRF1 R244A): ~6660 nM
Kd (NRF1 N242A): ~1730 nM
Kd (NRF1 T109A): ~2290 nM
Kd (NRF1 DD): ~1800 nM
Kd (NRF1 DD-DBD [1]; self-complementary): 310 ± 50 nM
Kd (NRF1 DBD [5]): ~1400 nM
Kd (NRF1 T109D): ~1600 nM
Kd (NRF1 R206A): ~5200 nM

B25: ACACTCT spacer (dsDNA)
DNA 1: ATGCGCACACTCTGCGCAT
DNA 2: ATGCGCAGAGTGTGCGCAT
Kd (NRF1 DD-DBD [1]): 4310 ± 280 nM
